Positions count from the first letter of the chain named.
B1: ARC19452 (XNA)
mixed: GGAATAUACUUGGCUCGUUAGGUGCGUAUAUA
modifications: 2'-OMe except dC9, dC14, dC16, dC25 and dT5; 3' idT
B2: ARC19470 (XNA)
mixed: B1 mixed with T5U, U27T
modifications: 2'-OMe except dC9, dC14, dC16, dC25 and dT27; 3' idT
B3: ARC33872 (XNA)
RNA: B1 mixed with T5U
modifications: 2'-OMe except dC9, dC14, dC16, dC25 and dU18; 3' idT
B4: ARC19473 (XNA)
RNA: B1 mixed with T5U
modifications: 2'-OMe except dC9, dC14, dC16, dC25 and dA30; 3' idT
B5: ARC33874 (XNA)
RNA: B1 mixed with T5U
modifications: 2'-OMe except dC9, dC14, dC16, dC25 and dU23; 3' idT
B6: ARC19494 (XNA)
RNA: B1 mixed with T5U
modifications: 2'-OMe except dC9, dC16, dC25; 2'-F C14; 3' idT
B7: ARC19454 (XNA)
mixed: B1 mixed with T5U, U7T
modifications: 2'-OMe except dC9, dC14, dC16, dC25 and dT7; 3' idT
B8: ARC19455 (XNA)
RNA: B1 mixed with T5U
modifications: 2'-OMe except dC9, dC14, dC16, dC25 and dA8; 3' idT
B9: ARC19496 (XNA)
RNA: B1 mixed with T5U
modifications: 2'-OMe except dC9, dC14, dC16; 2'-F C25; 3' idT
B10: ARC19472 (XNA)
mixed: B1 mixed with T5U, U29T
modifications: 2'-OMe except dC9, dC14, dC16, dC25 and dT29; 3' idT
B11: ARC33877 (XNA)
RNA: B1 mixed with T5U
modifications: 2'-OMe except dC9, dC14, dC16, dC25 and dU31; 3' idT
B12: ARC19448 (XNA)
RNA: B1 mixed with T5U
modifications: 2'-OMe except dC9, dC14, dC16, dC25 and dG1; 3' idT
B13: ARC19467 (XNA)
mixed: B1 mixed with T5U, U23T
modifications: 2'-OMe except dC9, dC14, dC16, dC25 and dT23; 3' idT
B14: ARC33876 (XNA)
RNA: B1 mixed with T5U
modifications: 2'-OMe except dC9, dC14, dC16, dC25 and dU29; 3' idT
B15: ARC19495 (XNA)
RNA: B1 mixed with T5U
modifications: 2'-OMe except dC9, dC14, dC25; 2'-F C16; 3' idT
B16: ARC33873 (XNA)
RNA: B1 mixed with T5U
modifications: 2'-OMe except dC9, dC14, dC16, dC25 and dU19; 3' idT
B17: ARC19471 (XNA)
RNA: B1 mixed with T5U
modifications: 2'-OMe except dC9, dC14, dC16, dC25 and dA28; 3' idT
B18: ARC19451 (XNA)
RNA: B1 mixed with T5U
modifications: 2'-OMe except dC9, dC14, dC16, dC25 and dA4; 3' idT
B19: ARC33875 (XNA)
RNA: B1 mixed with T5U
modifications: 2'-OMe except dC9, dC14, dC16, dC25 and dU27; 3' idT
B20: ARC19459 (XNA)
RNA: B1 mixed with T5U
modifications: 2'-OMe except dC9, dC14, dC16, dC25 and dG13; 3' idT
B21: ARC19475 (XNA)
RNA: B1 mixed with T5U
modifications: 2'-OMe except dC9, dC14, dC16, dC25 and dA32; 3' idT
B22: ARC19464 (XNA)
RNA: B1 mixed with T5U
modifications: 2'-OMe except dC9, dC14, dC16, dC25 and dA20; 3' idT
B23: ARC19465 (XNA)
RNA: B1 mixed with T5U
modifications: 2'-OMe except dC9, dC14, dC16, dC25 and dG21; 3' idT
B24: ARC33868 (XNA)
RNA: B1 mixed with T5U
modifications: 2'-OMe except dC9, dC14, dC16, dC25 and dU7; 3' idT
B25: ARC19461 (XNA)
RNA: B1 mixed with T5U
modifications: 2'-OMe except dC9, dC14, dC16, dC25 and dG17; 3' idT
B26: ARC19458 (XNA)
RNA: B1 mixed with T5U
modifications: 2'-OMe except dC9, dC14, dC16, dC25 and dG12; 3' idT
B27: ARC19453 (XNA)
RNA: B1 mixed with T5U
modifications: 2'-OMe except dC9, dC14, dC16, dC25 and dA6; 3' idT
B28: ARC19463 (XNA)
mixed: B1 mixed with T5U, U19T
modifications: 2'-OMe except dC9, dC14, dC16, dC25 and dT19; 3' idT
B29: ARC19466 (XNA)
RNA: B1 mixed with T5U
modifications: 2'-OMe except dC9, dC14, dC16, dC25 and dG22; 3' idT
B30: ARC19449 (XNA)
RNA: B1 mixed with T5U
modifications: 2'-OMe except dC9, dC14, dC16, dC25 and dG2; 3' idT
B31: ARC33871 (XNA)
RNA: B1 mixed with T5U
modifications: 2'-OMe except dC9, dC14, dC16, dC25 and dU15; 3' idT
B32: ARC19474 (XNA)
mixed: B1 mixed with T5U, U31T
modifications: 2'-OMe except dC9, dC14, dC16, dC25 and dT31; 3' idT
B33: ARC19450 (XNA)
RNA: B1 mixed with T5U
modifications: 2'-OMe except dC9, dC14, dC16, dC25 and dA3; 3' idT
B34: ARC19468 (XNA)
RNA: B1 mixed with T5U
modifications: 2'-OMe except dC9, dC14, dC16, dC25 and dG24; 3' idT
B35: ARC19457 (XNA)
mixed: B1 mixed with T5U, U11T
modifications: 2'-OMe except dC9, dC14, dC16, dC25 and dT11; 3' idT
B36: ARC33867 (XNA)
RNA: B1 mixed with T5U
modifications: 2'-OMe except dC9, dC14, dC16, dC25 and dU5; 3' idT
B37: ARC19460 (XNA)
mixed: B1 mixed with T5U, U15T
modifications: 2'-OMe except dC9, dC14, dC16, dC25 and dT15; 3' idT
B38: ARC33127 (mixed)
RNA: GGAAUAUACUUGCUCGUUAGGUGCGUAUAUA
modifications: 2'-OMe A/G/U, 2'-deoxy C, 3' idT
B39: ARC33128 (mixed)
RNA: B38 RNA with C13G
modifications: 2'-OMe A/G/U, 2'-deoxy C, 3' idT
B40: ARC33130 (mixed)
RNA: B38 RNA with C13G, U14C, C15U
modifications: 2'-OMe A/G/U, 2'-deoxy C, 3' idT
B41: ARC33129 (mixed)
RNA: B38 RNA with C13G, U14C
modifications: 2'-OMe A/G/U, 2'-deoxy C, 3' idT
B42: ARC33135 (mixed)
RNA: GGAAUAUACUUGGCUCGUUAGGGCGUAUAUA
modifications: 2'-OMe A/G/U, 2'-deoxy C, 3' idT
B43: ARC33123 (mixed)
RNA: GGAAUAACUUGGCUCGUUAGGUGCGUAUAUA
modifications: 2'-OMe A/G/U, 2'-deoxy C, 3' idT
B44: ARC33126 (mixed)
RNA: B38 RNA with U11G
modifications: 2'-OMe A/G/U, 2'-deoxy C, 3' idT
B45: ARC33125 (mixed)
RNA: B43 RNA with A7U, C8A
modifications: 2'-OMe A/G/U, 2'-deoxy C, 3' idT
B46: ARC33124 (mixed)
RNA: B43 RNA with A7U
modifications: 2'-OMe A/G/U, 2'-deoxy C, 3' idT
B47: ARC33131 (mixed)
RNA: GGAAUAUACUUGGCUCUUAGGUGCGUAUAUA
modifications: 2'-OMe A/G/U, 2'-deoxy C, 3' idT
B48: ARC33134 (mixed)
RNA: B42 RNA with G22U
modifications: 2'-OMe A/G/U, 2'-deoxy C, 3' idT
B49: ARC33133 (mixed)
RNA: B42 RNA with A20G, G22U
modifications: 2'-OMe A/G/U, 2'-deoxy C, 3' idT

Target: T1, TFPI (tissue factor pathway inhibitor, full-length) (Homo sapiens, UniProt P10646 SEQ:1-276)
Assay: competition; dot-blot
Details: tags: American Diagnostica 4500PC/4900PC, E. coli expressed
Description: Each molecule was evaluated for binding to tissue factor pathway inhibitor (TFPI) in a binding-competition assay. For these experiments, 10 nM human TFPI (American Diagnostica, Stamford, Conn., catalog #4500PC) was incubated with trace amounts of radiolabeled ARC17480 and 5000 nM, 1666.67 nM, 555.56 nM, 185.19 nM, 61.73 nM, 20.58 nM, 6.86 nM, 2.29 nM, 0.76 nM or 0.25 nM of unlabeled competitor aptamer. ARC17480 was included as a competitor in every experiment as a control. For each molecule, the percentage of radiolabeled ARC17480 bound at each competitor aptamer concentration was used for analysis. The percentage of radiolabeled ARC17480 bound was plotted as a function of aptamer concentration and fit to the equation y=(max/(1+x/IC₅₀))+int, where y=the percentage of radiolabeled ARC17480 bound, x=the concentration of aptamer, max=the maximum radiolabeled ARC17480 bound, and int=the y-intercept, to generate an IC₅₀ value for binding-competition. The IC₅₀ of each aptamer was compared to the IC₅₀ of ARC17480 that was evaluated in the same experiment. A substitution was considered tolerated in the binding-competition assay if the IC₅₀ of that molecule was not more than 5-fold greater than that of ARC17480 evaluated in the same experiment. Tolerated substitutions are indicated in Table 37 as meeting the assay criteria (“yes”) or not meeting the assay criteria (“no”).

T1 sequence (P10646 29-304): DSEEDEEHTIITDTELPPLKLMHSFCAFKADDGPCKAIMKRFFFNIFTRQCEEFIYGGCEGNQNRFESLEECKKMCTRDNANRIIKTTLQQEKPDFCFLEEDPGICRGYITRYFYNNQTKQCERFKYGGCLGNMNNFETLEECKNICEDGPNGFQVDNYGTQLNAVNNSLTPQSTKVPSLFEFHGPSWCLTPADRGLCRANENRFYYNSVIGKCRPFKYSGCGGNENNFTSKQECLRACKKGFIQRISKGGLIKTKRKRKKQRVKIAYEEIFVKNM

Row | Binder | binding signal
1 | B1 | ≤ 5 fold IC50 vs ARC17480
2 | B2 | ≤ 5 fold IC50 vs ARC17480
3 | B3 | ≤ 5 fold IC50 vs ARC17480
4 | B4 | ≤ 5 fold IC50 vs ARC17480
5 | B5 | ≤ 5 fold IC50 vs ARC17480
6 | B6 | ≤ 5 fold IC50 vs ARC17480
7 | B7 | ≤ 5 fold IC50 vs ARC17480
8 | B8 | ≤ 5 fold IC50 vs ARC17480
9 | B9 | ≤ 5 fold IC50 vs ARC17480
10 | B10 | ≤ 5 fold IC50 vs ARC17480
11 | B11 | ≤ 5 fold IC50 vs ARC17480
12 | B12 | ≤ 5 fold IC50 vs ARC17480
13 | B13 | ≤ 5 fold IC50 vs ARC17480
14 | B14 | ≤ 5 fold IC50 vs ARC17480
15 | B15 | ≤ 5 fold IC50 vs ARC17480
16 | B16 | ≤ 5 fold IC50 vs ARC17480
17 | B17 | ≤ 5 fold IC50 vs ARC17480
18 | B18 | ≤ 5 fold IC50 vs ARC17480
19 | B19 | ≤ 5 fold IC50 vs ARC17480

Row | Binder | binding signal
20 | B20 | ≤ 5 fold IC50 vs ARC17480
21 | B21 | ≤ 5 fold IC50 vs ARC17480
22 | B22 | ≤ 5 fold IC50 vs ARC17480
23 | B23 | ≤ 5 fold IC50 vs ARC17480
24 | B24 | ≤ 5 fold IC50 vs ARC17480
25 | B25 | ≤ 5 fold IC50 vs ARC17480
26 | B26 | ≤ 5 fold IC50 vs ARC17480
27 | B27 | ≤ 5 fold IC50 vs ARC17480
28 | B28 | ≤ 5 fold IC50 vs ARC17480
29 | B29 | ≤ 5 fold IC50 vs ARC17480
30 | B30 | ≤ 5 fold IC50 vs ARC17480
31 | B31 | ≤ 5 fold IC50 vs ARC17480
32 | B32 | ≤ 5 fold IC50 vs ARC17480
33 | B33 | ≤ 5 fold IC50 vs ARC17480
34 | B34 | ≤ 5 fold IC50 vs ARC17480
35 | B35 | ≤ 5 fold IC50 vs ARC17480
36 | B36 | ≤ 5 fold IC50 vs ARC17480
37 | B37 | ≤ 5 fold IC50 vs ARC17480

Target: T1, TFPI (tissue factor pathway inhibitor, …)
Assay: competition; fails binding-competition criterion
Details: tags: American Diagnostica 4500PC/4900PC, E. coli expressed
Description: Each molecule was evaluated for binding to tissue factor pathway inhibitor (TFPI) in a binding-competition assay. For these experiments, 10 nM human TFPI (American Diagnostica, Stamford, Conn., catalog #4500PC) was incubated with trace amounts of radiolabeled ARC17480 and 5000 nM, 1666.67 nM, 555.56 nM, 185.19 nM, 61.73 nM, 20.58 nM, 6.86 nM, 2.29 nM, 0.76 nM or 0.25 nM of unlabeled competitor aptamer. ARC17480 was included as a competitor in every experiment as a control. For each molecule, the percentage of radiolabeled ARC17480 bound at each competitor aptamer concentration was used for analysis. The percentage of radiolabeled ARC17480 bound was plotted as a function of aptamer concentration and fit to the equation y=(max/(1+x/IC₅₀))+int, where y=the percentage of radiolabeled ARC17480 bound, x=the concentration of aptamer, max=the maximum radiolabeled ARC17480 bound, and int=the y-intercept, to generate an IC₅₀ value for binding-competition. The IC₅₀ of each aptamer was compared to the IC₅₀ of ARC17480 that was evaluated in the same experiment. A substitution was considered tolerated in the binding-competition assay if the IC₅₀ of that molecule was not more than 5-fold greater than that of ARC17480 evaluated in the same experiment. Tolerated substitutions are indicated in Table 38 as meeting the assay criteria (“yes”) or not meeting the assay criteria (“no”).

Row | Binder | binding signal
38 | B38 | > 5 fold IC50 of ARC17480
39 | B39 | > 5 fold IC50 of ARC17480
40 | B40 | > 5 fold IC50 of ARC17480
41 | B41 | > 5 fold IC50 of ARC17480
42 | B42 | > 5 fold IC50 of ARC17480
43 | B43 | > 5 fold IC50 of ARC17480
44 | B44 | > 5 fold IC50 of ARC17480
45 | B45 | > 5 fold IC50 of ARC17480
46 | B46 | > 5 fold IC50 of ARC17480
47 | B47 | > 5 fold IC50 of ARC17480
48 | B48 | > 5 fold IC50 of ARC17480
49 | B49 | > 5 fold IC50 of ARC17480

From patent publication US20110281938, “APTAMERS TO TISSUE FACTOR PATHWAY INHIBITOR AND THEIR USE AS BLEEDING DISORDER THERAPEUTICS” (Baxter Healthcare S.A., published 2011)
